PMC10127277 (2023)

Assays:
Assay in all cases: SPR
RNF43-A7 = target: RNF43-A7
ZNRF3-A10 = target: ZNRF3-A10
RNF130-A1 = target: RNF130-A1

B1: human RNF43 extracellular domain (domain or fragment)
chain: GFGRTGLVLAAAVESERSAEQKAIIRVIPLKMDPTGKLNLTLEGVFAGVAEITPAEGKLMQSHPLYLCNASDDDNLEPGFISIVKLESPRRAPRPCLSLASKARMAGERGASAVLFDITEDRAAAEQLQQPLGLTWPVVLIWGNDAEKLMEFVYKNQKAHVRIELKEPPAWPDY
modifications: biotinylated (BirA ligase)
For B1, which Kd (RNF43-A7) is on record?
The Kd was 3.8 nM.

B2: human ZNRF3 extracellular domain (domain or fragment)
chain: KETAFVEVVLFESSPSGDYTTYTTGLTGRFSRAGATLSAEGEIVQMHPLGLCNNNDEEDLYEYGWVGVVKLEQPELDPKPCLTVLGKAKRAVQRGATAVIFDVSENPEAIDQLNQGSEDPLKRPVVYVKGADAIKLMNIVNKQKVARARIQHRPPRQPTEYFDM
modifications: biotinylated (BirA ligase)
For B2, which Kd (ZNRF3-A10) is on record?
The Kd was 0.7 nM.

B3: human RNF130 (GOLIATH) extracellular domain (domain or fragment)
chain: DNASQEYYTALINVTVQEPGRGAPLTFRIDRGRYGLDSPKAEVRGQVLAPLPLHGVADHLGCDPQTRFFVPPNIKQWIALLQRGNCTFKEKISRAAFHNAVAVVIYNNKSKEEPVTMTHPGTGDIIAVMITELRGKDILSYLEKNISVQMTIAVGTRMPPKNFSRGS
modifications: biotinylated (BirA ligase)
B3 was tested. Which Kd (RNF130-A1) did it give?
Its Kd is 8.2 nM.
